From article doi:10.1101/2021.12.01.470767 (bioRxiv, 2021)

How the values were obtained:
Assay in all cases: flow cytometry on cells
[1] = target: full-length S of endemic HCoV OC43, cell surface-expressed (Human coronavirus OC43, strain not …, UniProt P36334)
[2] = target: full-length S of bat CoV SHC014, cell surface-expressed (Bat SARS-like coronavirus RsSHC014, UniProt U5WLK5)
[3] = target: full-length MERS-CoV S, cell surface-expressed (MERS-CoV, strain , UniProt K9N5Q8)
[4] = target: full-length SARS-CoV-2 S (WT), cell surface-expressed (SARS-CoV-2, ancestral (Wuhan-Hu-1), UniProt P0DTC2)
[5] = target: full-length S of endemic HCoV NL63, cell surface-expressed (Human coronavirus NL63, strain not …, UniProt Q6Q1S2)
[6] = target: full-length S of endemic HCoV 229E, cell surface-expressed (Human coronavirus 229E, strain not …, UniProt P15423)
[7] = target: full-length SARS-CoV S, cell surface-expressed (SARS-CoV, strain , UniProt P59594)

B1: COVA1-07 (antibody, V domains shown)
VH: QVQLVESGAEVKKPGSSVKVSCKASGGTLSSYAITWVRQAPGQGLEWVGGIIPIFGTANYAQKFQGRVTITADESTSTAYMELSSLRSEDTAVYYCARVGAYDSSGYSNDYWGQGTLVTVSS
VL: DIQLTQSPATLSLSPGERATLSCRASQSVSSYLAWYQQKPGQAPRLLIYDASNRATGIPARFSGSGSGTDFTLTISSLEPEDFAVYYCQQRSNWPPRVTFGGGTKVEIK
B1: no binding (tested: 50 μg/mL) [1]; binds [2]; no binding (tested: 50 μg/mL) [3]. B1: binds [4]; no binding (tested: 50 μg/mL) [5]; no binding (tested: 50 μg/mL) [6]. B1: binds [7].

B2: COVA2-14 (antibody, V domains shown)
VH: QVQLVQSGAEVKKPGSSVKVSCKASGGTFSSYAIIWVRQAPGQGLEWMGGIIPIFGTANYAQKFQGRVTITTDESTSTAYMELSSLRSEDTAVYYCARVRYYDSSGYYEDYWGQGTLVTVSS
VL: EIVLTQSPATLSLSPGERATLSCRASQSVSSYLAWYQQEPGQAPRLLIYDASNRATGIPARFSGSGSGTDFTLTISSLEPEDFAVYYCQQRSNWPPMYTFGQGTKVEIK
B2: no binding (tested: 50 μg/mL) [1]; binds [2]; no binding (tested: 50 μg/mL) [3]. B2: binds [4]; no binding (tested: 50 μg/mL) [5]; no binding (tested: 50 μg/mL) [6]. B2: binds [7].

B3: COVA2-18 (antibody, V domains shown)
VH: EVQLVQSGAEVKKPGSSVKVSCKASGGTFSSYAISWVRQAPGQGLEWMGGIIPIFGTTNYAQKFQGRVTITTDESTSTAYMELSSLRSEDTAVYYCARVYSYDSSGYYLEYWGQGTRVTVSS
VL: EIVLTQSPATLSLSPGERATLSCRASQSVSSYLAWYQQKPGQAPRLLIYDASNRATGIPARFSGSGSGTDFTLTISSLEPEDFAVYYCQQRSNWPPSITFGQGTRLEIK
B3: no binding (tested: 50 μg/mL) [1]; binds [2]; no binding (tested: 50 μg/mL) [3]. B3: binds [4]; no binding (tested: 50 μg/mL) [5]; no binding (tested: 50 μg/mL) [6]. B3: binds [7].
